T1: mouse PD-1 (mouse, UniProt Q02242 25-288)
T1 construct: whole, on cells; also called CHO/mouse PD-1
T1 sequence (looked up): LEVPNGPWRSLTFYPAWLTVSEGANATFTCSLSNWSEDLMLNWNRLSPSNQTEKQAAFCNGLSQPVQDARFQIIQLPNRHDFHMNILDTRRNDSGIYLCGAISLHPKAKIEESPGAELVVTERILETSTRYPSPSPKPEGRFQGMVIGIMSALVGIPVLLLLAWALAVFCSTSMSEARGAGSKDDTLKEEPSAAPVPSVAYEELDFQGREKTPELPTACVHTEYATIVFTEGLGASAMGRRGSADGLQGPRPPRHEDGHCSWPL

T2: mouse IL10R1 (mouse, UniProt Q61727 17-575)
T2 construct: whole, on cells; also called CHO/mouse IL10R1
T2 sequence (looked up): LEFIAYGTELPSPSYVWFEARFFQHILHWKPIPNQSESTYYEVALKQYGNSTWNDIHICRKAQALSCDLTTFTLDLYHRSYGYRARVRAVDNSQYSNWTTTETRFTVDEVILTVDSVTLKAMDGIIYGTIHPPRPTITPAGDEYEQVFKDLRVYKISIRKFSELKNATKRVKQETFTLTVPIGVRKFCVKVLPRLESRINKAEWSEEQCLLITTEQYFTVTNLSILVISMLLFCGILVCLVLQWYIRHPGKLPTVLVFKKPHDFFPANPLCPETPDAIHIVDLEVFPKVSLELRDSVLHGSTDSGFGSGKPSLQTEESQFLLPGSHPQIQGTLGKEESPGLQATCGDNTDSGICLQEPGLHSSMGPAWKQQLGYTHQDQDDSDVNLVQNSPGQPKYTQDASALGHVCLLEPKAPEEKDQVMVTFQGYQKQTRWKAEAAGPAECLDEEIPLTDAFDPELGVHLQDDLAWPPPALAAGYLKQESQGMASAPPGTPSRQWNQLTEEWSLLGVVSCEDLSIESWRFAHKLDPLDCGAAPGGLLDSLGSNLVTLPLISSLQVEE

T3: cyno IL10R1 (cyno, UniProt A0A2K5WJ66 22-576)
T3 construct: whole, on cells; also called CHO/cyno IL10R1; monkey IL10R1
T3 sequence: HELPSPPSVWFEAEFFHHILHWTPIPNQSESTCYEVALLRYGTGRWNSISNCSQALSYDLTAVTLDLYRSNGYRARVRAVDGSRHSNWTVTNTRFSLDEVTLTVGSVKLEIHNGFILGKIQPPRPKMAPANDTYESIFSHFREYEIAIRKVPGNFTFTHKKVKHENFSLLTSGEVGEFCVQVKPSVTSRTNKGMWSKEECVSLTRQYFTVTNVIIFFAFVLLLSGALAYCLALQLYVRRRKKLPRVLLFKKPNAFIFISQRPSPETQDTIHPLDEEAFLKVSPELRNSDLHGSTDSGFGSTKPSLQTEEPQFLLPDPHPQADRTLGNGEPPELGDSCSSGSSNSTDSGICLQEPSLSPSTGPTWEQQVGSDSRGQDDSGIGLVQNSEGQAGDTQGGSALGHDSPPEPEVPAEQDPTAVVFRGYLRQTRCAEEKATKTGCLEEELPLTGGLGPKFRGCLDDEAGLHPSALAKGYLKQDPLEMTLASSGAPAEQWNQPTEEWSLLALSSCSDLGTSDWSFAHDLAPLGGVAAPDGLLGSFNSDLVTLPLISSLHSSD

T4: human IL10R1 (human, UniProt Q13651 22-578)
T4 construct: whole, on cells; also called CHO/human IL10R1
T4 sequence (looked up): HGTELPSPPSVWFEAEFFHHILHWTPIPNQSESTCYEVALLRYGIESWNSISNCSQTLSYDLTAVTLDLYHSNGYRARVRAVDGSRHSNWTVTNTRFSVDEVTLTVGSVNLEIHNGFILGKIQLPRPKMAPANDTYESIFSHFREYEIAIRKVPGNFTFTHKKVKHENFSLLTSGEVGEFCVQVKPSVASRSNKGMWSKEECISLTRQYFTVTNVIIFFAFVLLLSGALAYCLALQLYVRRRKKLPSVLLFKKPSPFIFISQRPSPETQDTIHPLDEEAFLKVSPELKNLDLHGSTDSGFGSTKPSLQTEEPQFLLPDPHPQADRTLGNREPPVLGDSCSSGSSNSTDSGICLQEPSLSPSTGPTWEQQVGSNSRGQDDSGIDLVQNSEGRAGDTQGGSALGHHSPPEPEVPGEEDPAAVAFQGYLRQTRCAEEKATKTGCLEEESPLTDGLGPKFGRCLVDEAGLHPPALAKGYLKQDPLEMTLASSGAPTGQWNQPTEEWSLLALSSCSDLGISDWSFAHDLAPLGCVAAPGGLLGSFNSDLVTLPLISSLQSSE


Key:
[1] = molecular target: T1, mouse PD-1; test: FACS on CHO/mouse PD-1 cells
[2] = molecular target: T2, mouse IL10R1; test: FACS on CHO/mouse IL10R1 cells
[3] = molecular target: T3, cyno IL10R1; test: FACS on CHO/cyno IL10R1 cells
[4] = molecular target: T5, human PD1 (human, UniProt Q15116 25-288); test: FACS on CHO/human PD-1 cells
T5 construct: whole, on cells; also called hPD1; CHO-hPD1

[5] = molecular target: T4, human IL10R1; test: FACS on CHO/human IL10R1 cells
[6] = molecular target: T5, human PD1; test: cell-based or functional assay
[7] = molecular target: T5, human PD1; test: FACS: blocking of human PD-L1-mFC (1 µg/mL) binding to CHO/human PD-1 cells
[8] = molecular target: T5, human PD1; test: FACS binding on CHO/human PD-1 cells (Example 12)
[9] = molecular target: T6, cyno PD-1 (cyno, UniProt B0LAJ3 25-288); test: FACS on CHO/cyno PD-1 cells
T6 construct: also called CHO/cyno PD-1; monkey PD-1
T6 sequence (B0LAJ3 entry or part of it limits assumed, form in doubt): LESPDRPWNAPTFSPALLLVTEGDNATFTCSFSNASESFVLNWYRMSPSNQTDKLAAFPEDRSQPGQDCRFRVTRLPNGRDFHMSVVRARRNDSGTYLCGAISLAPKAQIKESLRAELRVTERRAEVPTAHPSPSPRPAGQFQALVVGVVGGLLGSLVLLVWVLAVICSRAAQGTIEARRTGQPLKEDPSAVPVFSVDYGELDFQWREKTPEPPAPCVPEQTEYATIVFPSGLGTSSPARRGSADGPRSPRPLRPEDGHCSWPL

T5 sequence (Q15116 25-288): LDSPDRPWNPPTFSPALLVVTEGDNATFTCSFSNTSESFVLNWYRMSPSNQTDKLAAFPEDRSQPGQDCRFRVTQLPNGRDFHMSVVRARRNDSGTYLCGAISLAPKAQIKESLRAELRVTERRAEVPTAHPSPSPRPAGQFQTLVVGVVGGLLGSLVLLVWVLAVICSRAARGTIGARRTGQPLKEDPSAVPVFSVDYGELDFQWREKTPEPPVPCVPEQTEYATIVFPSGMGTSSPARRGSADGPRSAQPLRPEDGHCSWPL

| binding result [1] | binding result [2] | binding result [3] | binding result [4] | binding result [5] | EC50 of luciferase reporter gene activity (CHO-OKT3-hPD-L1 cells + Jurkat-NFAT-luc-hPD-1 cells) [6] [nM] | IC50 [7] [nM] | EC50 [8] [nM] | EC50 [9] [nM] | EC50 [4] [nM] | Binder |
| --- | --- | --- | --- | --- | --- | --- | --- | --- | --- | --- |
| no binding | no binding | no binding | no binding | no binding | – | – | – | – | – | R0862, hIgG1 antibody containing an L234A/L235A mutation (antibody, V domains shown, Isotype control; also called ISO-hIgG1.8; copies: 2 + 2) VH: QVQLVESGGGVVQPGRSLRLSCAASGFTFSSYGMHWVRQAPGKGLEWVAAIWYDGSNKYYTDSVKGRFTISRDNSKNTLYLQMNSLRAEDTAVYYCARDLRGVMYFDLWGRGTLVTVSS VL: EIVLTQSPATLSLSPGERATLSCRASQSVSRYLAWYQQKPGQAPRLLIYDASNRATGIPARFSGSGSGTDFTLTISSLEPEDFAVYYCQLRNNWPLTFGGGTKVEIKR |
| no binding | – | – | – | – | 6.84 | 8.34 | 7.75 | 3.47 | 5.47 | anti-PD1 antibody R1152 (antibody, human IgG1, kappa, L234A L235A, V domains shown, also called PD1 monoclonal antibody R1152; PD-1 parent antibody) VH: QVQLVQSGAEVKKPGASVKVSCKASGYTFTTYYMYWVRQAPGQGLEWMGGINPSNGGTNYAQKFQGRATMTVDTSTSTAYMELSSLRSEDTAVYYCTRRDSNYDGGFDYWGQGTTVTVSS VL: DIQMTQSPSSLSASVGDRVTITCRASKSVSTSGYSYMHWYQQKPGKAPKLLIYLAYHLESGVPSRFSGSGSGTDFTLTISSLQPEDFATYYCQHSWELPITFGQGTKLEIKR |

Source: patent EP4786499A1 (Guangdong Fapon Biopharma Inc., dated 2026)
